Data on one substance can be found in patent US20260234738A1.

This experiment has as its target SARS-CoV-2 spike protein variant Y483A on VSV pseudoparticles (SARS-CoV-2) (UniProt P0DTC2). Briefly: cell-based or functional assay.

For mAb10987 (antibody), the Relative neutralization at 5 µg/ml was determined as 99%.
